Where “and” joins values, the source holds several entries; their conditions need not be identical. Identical values can stand only once.
Target: F-actin (filamentous actin from rabbit muscle) (rabbit, UniProt P68135 1-377)
Assay: co-sedimentation

- Kd: 2110 nM and 3100 nM
B1: 90 kDa isoform of palladin (natural protein)
chain: MSALASRSAPAMQSSGSFNYARPKQFIAAQNLGPASGHGTPASSPSSSSLPSPMSPTPRQFGRAPVPPFAQPFGAEPEAPWGSSSPSPPPPPPPVFSPTAAFPVPDVFPLPPPPPPLPSPGQASHCSSPATRFGHSQTPAAFLSALLPSQPPPAAVNALGLPKGVTPAGFPKKASRTARIASDEEIQGTKDAVIQDLERKLRFKEDLLNNGQPRLTYEERMARRLLGADSATVFNIQEPEEETANQEYKVSSCEQRLISEIEYRLERSPVDESGDEVQYGDVPVENGMAPFFEMKLKHYKIFEGMPVTFTCRVAGNPKPKIYWFKDGKQISPKSDHYTIQRDLDGTCSLHTTASTLDDDGNYTIMAANPQGRISCTGRLMVQAVNQRGRSPRSPSGHPHVRRPRSRSRDSGDENEPIQERFFRPHFLQAPGDLTVQEGKLCRMDCKVSGLPTPDLSWQLDGKPVRPDSAHKMLVRENGVHSLIIEPVTSRDAGIYTCIATNRAGQNSFSLELVVAAKEAHKPPVFIEKLQNTGVADGYPVRLECRVLGVPPPQIFWKKENESLTHSTDRVSMHQDNHGYICLLIQGATKEDAGWYTVSAKNEAGIVSCTARLDVYTQWHQQSQSTKPKKVRPSASRYAALSDQGLDIKAAFQPEANPSHLTLNTALVESEDL

— paper doi:10.1101/2022.09.14.507982 (bioRxiv, 2022)
